Experimental data published in paper PMC7213743, “ArdC, a ssDNA-binding protein with a metalloprotease domain, overpasses the recipient hsdRMS restriction system broadening conjugation host range”.

Key:
ArdC [1] = molecular target: T1, ArdC (Escherichia coli plasmid R388 …, UniProt Q6I6B2 22-318); test: EMSA; 0-1 uM ArdC, 50 nM DNA; preferred over dsDNA; EMSA: 50 mM NaCl, 25 mM Tris-HCl pH 7.5, 0.5 mM EDTA, room temperature 30 min, 50 nM DNA; 10% native PAGE in cold 1x TBE; conditions: protein: recombinant; label: 6FAM (5'); single strand
T1 sequence: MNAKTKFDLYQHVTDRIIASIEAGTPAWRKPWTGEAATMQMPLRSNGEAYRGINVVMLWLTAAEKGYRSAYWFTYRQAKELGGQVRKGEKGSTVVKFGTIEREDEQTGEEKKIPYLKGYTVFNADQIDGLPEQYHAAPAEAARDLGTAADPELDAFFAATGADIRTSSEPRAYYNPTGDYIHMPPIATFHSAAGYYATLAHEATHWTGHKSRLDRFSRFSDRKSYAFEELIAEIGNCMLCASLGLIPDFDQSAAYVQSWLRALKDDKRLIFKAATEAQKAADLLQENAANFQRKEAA

ArdC [2] = molecular target: T1, ArdC; test: EMSA; 0-1 uM ArdC, 50 nM DNA; preferred over blunt duplex; EMSA: 50 mM NaCl, 25 mM Tris-HCl pH 7.5, 0.5 mM EDTA, room temperature 30 min, 50 nM DNA; 10% native PAGE in cold 1x TBE; conditions: protein: recombinant, label: 6FAM (5' of strand 1)

B1: Fluor-T87I2 (45 b ssDNA) (ssDNA)
DNA: TACGCTCTTGGGCGCGCTGAATATGAGGTCAAGGCCGATGCGCTC
ArdC [1]
  binding result: binds

B2: Fluor-T87I2 + Mid2 (partial duplex) (mixed)
DNA 1: TACGCTCTTGGGCGCGCTGAATATGAGGTCAAGGCCGATGCGCTC
DNA 2: CTCATATTCAGCGCGCCCAAGAGCGTA
ArdC [2]; 27 bp duplex, 3' overhang 18 nt (strand 1)
  binding result: binds

B3: Fluor-T87I2 + Mid1 (partial duplex) (mixed)
DNA 1: TACGCTCTTGGGCGCGCTGAATATGAGGTCAAGGCCGATGCGCTC
DNA 2: GAGCGCATCGGCCTTGAC
ArdC [2]; 18 bp duplex, 5' overhang 27 nt (strand 1)
  binding result: binds
